Assays:
[1] = biological target: RKIP^S153A, cardiac transgene
[2] = biological target: wild-type RKIP, cardiac transgene (RKIP-tg)

B1: G protein-coupled receptor kinase (GRK) in mouse heart lysates (protein)
chain: MADLEAVLADVSYLMAMEKSKATPAARASKKILLPEPSIRSVMQKYLEDRGEVTFEKIFSQKLGYLLFRDFCLNHLEEAKPLVEFYEEIKKYEKLETEEERVVRSREIFDSYIMKELLACSHPFSKNATEHVQGHLVKKQVPPDLFQPYIEEICQNLRGDVFQKFIESDKFTRFCQWKNVELNIHLTMNDFSVHRIIGRGGFGEVYGCRKADTGKMYAMKCLDKKRIKMKQGETLALNERIMLSLVSTGDCPFIVCMSYAFHTPDKLSFILDLMNGGDLHYHLSQHGVFSEADMRFYAAEIILGLEHMHNRFVVYRDLKPANILLDEHGHVRISDLGLACDFSKKRPHASVGTHGYMAPEVLQKGVAYDSSADWFSLGCMLFKLLRGHSPFRQHKTKDKHEIDRMTLTMAVELPDSFSPELRSLLEGLLQRDVNRRLGCLGRGAQEVKESPFFRSLDWQMVFLQKYPPPLIPPRGEVNAADAFDIGSFDEEDTKGIKLLDSDQELYRNFPLTISERWQQEVAETVFDTINAETDRLEARKKAKNKQLGHEEDYALGKDCIVHGYMSKMGNPFLTQWQRRYFYLFPNRLEWRGEGEAPQSLLTMEEIQSVEETQIKERKCLLLKIRGGKQFVLQCDSDPELVQWKKELRDAYREAQQLVQRVPKMKNKPRSPVVELSKVPLIQRGSANGL
GRK activity (in vitro rhodopsin phosphorylation with heart lysates; immunoblot of β2AR phosphorylation) [1]: GRK activity was significantly reduced in mouse hearts of RKIP-tg but not of RKIP^S153A mice
GRK activity (in vitro rhodopsin phosphorylation with heart lysates; immunoblot of β2AR phosphorylation) [2]: GRK activity was significantly reduced in mouse hearts of RKIP-tg

— patent publication US20180179292
